This is an account of results in PMC11281638.

This assay has as its target Sso7d-IN (full-length HIV-1 integrase fused to Sso7d) (not stated | HIV-1). The experiment in a line: semi-quantitative SDS-PAGE (Coomassie) of the purified complex.

“IN-CTD (HIV-1 integrase residues 185-288), His-tagged (from UniProt P12497 186-289) (domain or fragment)” showed a stoichiometry N (CTD per full-length IN) of 0.3.
With “LEDGF-IBD (lens epithelium-derived growth factor IN-binding domain, residues 307-460), His-tagged (from UniProt O75475 307-460) (domain or fragment)”, the stoichiometry N (IBD per full-length IN) was 1.
